{
  "source": "paper PMC11190351",
  "about": "(Plant Direct, 2024)",
  "biological_target": "the molecule itself",
  "assay": "SEC",
  "data": [
    {"protein": "Chlamydomonas reinhardtii alpha amylase 2 (AMA2), full-length recombinant enzyme (enzyme, UniProt A0A2K3DGK5 1-706, looked up) MDRSLLSRTSPRMQLGRPQQLPPPTVPLAQVPRLQRRCVVGSRVCQPVVAVRPGRASAGRGGRLVVSSVDMSNSPLSSMDAGEGLDIMFDNNSDAECTVVTVEGKDKAHLLMSLTGGFSSAGLTVISASITSDDGRVLDVFRVQTADGKKVPEEQFPSVREHILSVTATSSRSSMPAIYGIVAAAEVERLKPLRSQSTQNDVDALELAAAEMTQAVAELVATERDIIRMRASNADARTLQTKEANRTEAAAGLERKMAAMQAVLAARRNLATEPEKPKSPTEKLLETLKPPTPMRAAAGAGSGSGSEILLQAFNWESHRQKLYKQLMGRVKDISDAGFTGVWMPPPSDSVSPQGYLPRDLYSLDSAYGSEAELRELIAAFHQNNIKVIADIVVNHRCANSQGSDGKWNKFGGRLAWDASAICSNNPSFGGRGNPKQGDDYAAAPNIDHSQERIRNDIVQWMKYLRNSIGFDGWRFDFVRGYLGSYCKQYIDETVPAMAFGEYWDSCEYTDGVLNYNQDAHRQRTVNWCDSTGGTSAAFDFTTKGILQEAVGRREYWRLVDSQGRPPGVMGMWPSRAITFIDNHDTGSTLNHWPFPSRNLPEGYAYILTHPGTPCVFYDHFYQEENNLRKIILDLLKVRRRNGLNARSKVVMKKSAADVYAAMIDDKVAVKLGPGDWSPNQSGIKVNGKELKVAASGFQFAVWEGQH", "values": [
      {"measurement": "stoichiometry N", "result": 2}
    ]}
  ]
}
